Laboratory results: US20060062793A1, “Modified antibodies to prostate-specific membrane antigen and uses thereof” (priority 2004, published 2006)

Columns and labels:
[1] = tested on: LNCap membrane preparation; experiment: ELISA for binding of J415 deimmunized antibodies to LNCap membrane preparation; parameters: species or system human
Protocol: The J415 deimmunized antibodies (including various combinations of the deimmunized light chain and heavy chain subunits) were tested in an ELISA for binding to LNCap membrane preparation following the protocol as detailed above. ELISA plates were coated with LNCap membrane preparation and blocked with 5% BSA in phosphate buffered saline. Doubling dilutions of the J415 chimeric antibody (murine variable heavy and light chain regions fused to human constant heavy and light chain regions, respectively) and the deimmunized antibodies were applied. Detection was with horseradish peroxidase conjugated goat anti-human IgG and donkey anti-mouse for chimeric and mouse antibodies respectively. Color was developed with o-phenylene diamine substrate.

[2] = tested on: PSMA-positive human LNCaP tumors; experiment: Biodistribution of 111In labeled MAbs in nude mice bearing LNCaP tumors; type: in vivo, mouse
Protocol: Prior to use, the cells were trypsinized, counted and suspended in Matrigel (Collaborative Biomedical Products, Bedford, Mass.). Nu/Nu Balb C mice 8-10 weeks of age were inoculated, in the right and left flanks, with a suspension of 5×10^6 LNCaP cells in Matrigel (BD Biosciences, Bedford Mass.). After a period of 14-18 days, tumors (100-300 mg) had developed. The PSMA-negative DU145 and PC3 cells were implanted in nude mice in an identical manner.
The PSMA-positive and PSMA-negative tumor bearing mice were injected, via the tail vein, with 80 KBq of the iodinated MAb (400 MBq/mg) in 200 μL of PBS (pH 7.4, 0.2% BSA). Groups of animals (3-8/group) were sacrificed after 2, 4 or 6 days. The major organs and tumors were recovered. The tissue samples were weighed and counted, with appropriate standards in an automatic NaI(Tl) counter. These measured relative activity data (cpm) were background corrected and expressed as a percentage of the injected dose per gram (% ID/g). […] J415, J591 and 7E11 were labeled with ^111In (100 MBq/mg). 80 KBq of the ^111In labeled MAbs were injected in groups of animals. The % ID/g in various organs and tumor tissues was determined at 2-6 days post injection in a similar way as described for ^131I labeled MAbs.

LNCaP tumor sections = type: in vivo, mouse; conditions: 131I-labeled, 4 to 6 days after intravenous injection
Text: For several animals (n=20), harvested tumor samples were immediately cooled in liquid nitrogen and frozen in embedding medium (O.C.T. 4583, Sakura Finetec, Torrance Calif.). Twenty micron sections were cut and the tumor sections were either fixed with acetone and placed in direct contact with a sheet of photographic film (Biomax, Kodak, Rochester, N.Y.) or stained with hematoxin/eosin prior to exposure of the film. Tumors from control animals were collected and cut into 10 μm sections. […] Non-specific binding was determined in the presence of 100 nM J591 MAb. These sections were then washed 3 times with PBS (containing 0.2% BSA) and once with Tris buffer prior to being fixed with acetone and then exposed to photographic film.

Molecule | binding to LNCap cells as compared to the chimeric antibody [1] | kinetics of blood clearance [2] | tumor uptake over time [2] | tumor/blood ratios [2] | intra-tumoral distribution pattern (LNCaP tumor sections)
deJ415: deimmunized J415, heavy chain J415DIVH4 combined with light chain J415DIVK5; ATCC PTA-4174 (antibody, V domains shown) VH: EVKLEESGGGLVQPGGSMKISCVASGFTFSNYWMNWVRQSPEKGLEWVAEIRSQSNNFATHYAESVKGRVIISRDDSKSSVYLQMNSLRAEDTAVYYCTRRWNNFWGQGTTVTVSS VL: NIVMTQFPKSMSASAGERMTLTCKASENVGTYVSWYQQKPTQSPKMLIYGASNRFTGVPDRFSGSGSGTDFILTISSVQAEDLVDYYCGQSYTFPYTFGGGTKLEMK | equivalent binding | – | – | – | –
J415: murine monoclonal antibody to human PSMA; hybridoma ATCC HB-12109 (antibody, V domains shown) VH: EVKLEESGGGLVQPGGSMKLSCVASGFTFSNYWMNWVRQSPEKGLEWVAEIRSQSNNFATHYAESVKGRVIISRDDSKSSVYLQMNNLRAEDTGIYYCTRRWNNFWGQGTTLTVSS VL: NIVMTQFPKSMSISVGERVTLTCKASENVGTYVSWYQQKPEQSPKMLIYGASNRFTGVPDRFTGSGSATDFILTISSVQTEDLVDYYCGQSYTFPYTFGGGTKLEMK | – | faster compared to 7E11 | gradually increased with time and is quite similar to that of 7E11 | significantly higher compared to that of 7E11 | distinct preferential accumulation in areas of viable tumor
